T1: human-derived recombinant HMGB1 (expressed in Sf9 cells) (human, UniProt P09429 1-215, limits assumed)
T1 construct: Purified from baculovirus-infected Sf9 cells on Ni-NTA; also called Sf6-expressed recombinant human HMGB1; Sf6-derived recombinant HMGB1
T1 sequence (looked up): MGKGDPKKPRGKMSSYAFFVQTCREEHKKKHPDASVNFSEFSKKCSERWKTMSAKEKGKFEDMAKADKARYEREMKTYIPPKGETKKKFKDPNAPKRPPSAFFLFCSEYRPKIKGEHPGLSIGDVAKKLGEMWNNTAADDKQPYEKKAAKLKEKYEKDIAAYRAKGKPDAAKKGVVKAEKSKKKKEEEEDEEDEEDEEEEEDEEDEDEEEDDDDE

T2: HMGB1 C-terminal region synthetic peptide #9 EDEDEEEDDDDE
T2 construct: Synthetic peptide (SIGMA-ALDRICH, PEPScreen), dotted at 4 µg/spot on nitrocellulose
T2 peptide: EDEDEEEDDDDE

T3: HMGB1 most C-terminal 8 residues synthetic peptide #10 EEEDDDDE
T3 construct: Synthetic peptide (SIGMA-ALDRICH, PEPScreen), dotted at 4 µg/spot on nitrocellulose
T3 peptide: EEEDDDDE


Tests used:
[1] = molecular target: T1, human-derived recombinant HMGB1 …; test: competition ELISA, inhibition of HMGB1 binding to immobilized RAGE-Fc
Protocol: RAGE-Fc (R&D, 250 ng/well) was immobilized overnight at 4° C. on immunoplates (Nunc, Maxisorp) and 5% BSA (bovine serum albumin) was added thereto to block the plates for 2 hours, followed by addition of human monoclonal antibody (Control Ig) to block the plates for 2 hours. HMGB1 (Sf6-derived recombinant HMGB1, final concentration: 2 μg/ml) was mixed with anti-HMGB1 antibody (#10-22 chimera, EV007156 or G4) or non-HMGB1-specific human monoclonal antibody (Control Ig) serving as a negative control antibody at a final concentration of 0, 0.02, 0.2, 2 or 20 μg/ml and incubated for 60 minutes. Subsequently, the reaction solutions were added to the immunoplates and reacted for 2 hours. Then, anti-HMGB1 antibody (Abnova, #H00003146-M08, 1 μg/ml) which had been biotinylated with a Biotin Labeling Kit (Dojindo, LK03) was reacted at room temperature for 1 hour. Finally, HRP-labeled streptavidin was reacted at room temperature for 1 hour. TMB (3,3′,5,5′-tetramethylbenzidine; SureBlue, KPL, #52-00-03) was added and HMGB1 bound to RAGE was detected by absorbance at 450 nm (FIG. 10). #10-22 chimera, EV007156 and G4 were all found to inhibit the binding of HMGB1 to RAGE in a manner dependent on the added antibody concentration.

[2] = molecular target: T2, HMGB1 C-terminal region synthetic …; test: dot blotting, peptide at 4 µg/spot, antibody at 1 µg/ml
Protocol: (§1) To identify the positions of amino acids where the epitope of EV007156 against HMGB1 was located from among those constituting the C-terminal end of HMGB1, peptide mapping was conducted. Namely, 9 types of 12-residue long amino acids at 3 residue intervals and the most C-terminal 8 residues, i.e., 10 peptides in total (#1. […] (SEQ ID NO: 51), #2. […] (SEQ ID NO: 52), #3. […] (SEQ ID NO: 53), #4. EEDEEEEEDEED (SEQ ID NO: 54), #5. DEEEEEDEEDED (SEQ ID NO: 55), #6. […] (SEQ ID NO: 56), #7. EEDEEDEDEEED (SEQ ID NO: 57), #8. […] (SEQ ID NO: 58), #9. […] (SEQ ID NO: 59), #10. […] (SEQ ID NO: 60)) were designed to cover all the amino acids constituting the C-terminal region of HMGB1. The peptides thus synthesized (SIGMA-ALDRICH, PEPScreen) were each dissolved at 4 mg/ml in a 0.1 M ammonium acetate solution and added dropwise at 4 μg/spot onto a nitrocellulose membrane. After drying, the membrane was blocked with 5% skimmed milk-TBST for 90 minutes. EV007156 was then reacted for 1 hour at a concentration of 1 μg/ml. Subsequently, HRP-labeled anti-human IgG antibody (MBL, #208) was reacted for 1 hour, followed by detection using ECL prime (GE Healthcare, RPN2232) (FIG. 18). […], and more particularly the most C-terminal 8 residues (#10. […] (SEQ ID NO: 60)).

[3] = molecular target: T3, HMGB1 most C-terminal 8 residues …; test: as above
Protocol: as §1

Row | IC50 [1] [µg/mL] | binding result [2] | binding result [3] | Binder
1 | 3.04 |  |  | #10-22 chimeric antibody (antibody, human IgG1, lambda, Rat #10-22 variable regions with human IgG1(lambda) constant regions; also called #10-22 chimera) heavy: not shown light: YELIQPPSASVTLGNTVSITCSGDELPKRYAYWYQQKPDKSIVRVIYKDSERPSGISDRFSGSSSGTTATLTIRDTQAEDEADYYCHSTYSDDKLPVFGGGTKLTVLGQPKAAPSVTLFPPSSEELQANKATLVCLISDFYPGAVTVAWKADSSPVKAGVETTTPSKQSNNKYAASSYLSLTPEQWKSHRSYSCQVTHEGSTVEKTVAPTECS
2 |  | binds | binds | #10-22 humanized antibody EV007156 (antibody, human IgG1, lambda, V domains shown, also called EV007156H + EV007156L) VH: EVQLVESGGGLVQPGGSLKLSCAASGFTFSNAAMYWVRQASGKGLEWVARIRTKPNNYATYYADSVKGRFTISRDDSKNTAYLQMNSLKTEDTAVYYCTAPRRTEGIVSSGVDYWGQGTLVTVSS VL: YELTQPPSVSVSPGQTASITCSGDELPKRYAYWYQQKPGQSIVRVIYKDSERPSGIPERFSGSSSGTTATLTISGTQAEDEADYYCHSTYSDDKLPVFGGGTKLTVLG

Source: US20150361164A1 (EVEC, published 2015)
